The target of assay [1] is mouse-derived galanin receptor protein (mouse pancreatic β-cell line MIN6-derived, encoded by pMGR20) (mouse) (UniProt P56479). The assay can be described thus: competition with porcine [125I] galanin on membranes of CHO cells expressing the mouse galanin receptor.
Assay [2] shares this target. The assay is described as follows: competition with 100 pM porcine [125I] galanin on membranes of CHO cells expressing the mouse galanin receptor, 25 C 75 min.
For assay [3] the target is unchanged. The assay is described as follows: competition with [125I] porcine galanin on MIN6 cell membrane fractions, 25 C 75 min, filtration.
Assay [4] deals with T1, mouse-derived galanin receptor protein (mouse pancreatic β-cell line MIN6-derived, encoded by pMGR20) (mouse, UniProt P56479 1-348).
T1 construct: also called mouse galanin receptor; MIN6-derived galanin receptor protein
T1 sequence: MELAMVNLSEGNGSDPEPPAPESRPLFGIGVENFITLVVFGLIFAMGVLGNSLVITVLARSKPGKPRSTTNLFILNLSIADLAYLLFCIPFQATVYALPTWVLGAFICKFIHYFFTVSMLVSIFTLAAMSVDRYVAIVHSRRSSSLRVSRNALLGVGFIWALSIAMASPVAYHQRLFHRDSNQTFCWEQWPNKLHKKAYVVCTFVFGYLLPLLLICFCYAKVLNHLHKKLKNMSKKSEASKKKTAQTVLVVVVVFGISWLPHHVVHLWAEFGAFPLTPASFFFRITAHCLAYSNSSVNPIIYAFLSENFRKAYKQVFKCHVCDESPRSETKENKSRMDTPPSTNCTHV
Described as above. The protocol:
The MIN6 cell membrane fractions prepared by the method of the above-mentioned (1) were diluted with a buffer for the receptor binding experiment (containing 20 mM of Tris, 1 mM of EDTA, 0.03% of NaN , 0.1% of BSA, 0.05% of CHAPS, 0.5 mM of PMSF, 10 μg/ml of pepstatin, 20 μg/ml of leupeptin and 4 μg/ml of E-64; pH: 7.4) to make the membrane protein concentration 50 μg/ml.
The mixture was allowed to stand in a water bath of 25° C. for 75 minutes to promote the receptor binding reaction. Thereafter, 1.5 ml of an ice-cooled buffer for the binding experiment was added to the reaction solution for quenching the binding reaction and filtered with a glass fiber filter (GF/F, manufactured by Whatman) immediately whereupon the membrane fractions were collected on the filter paper. Then the filter paper was washed with 1.5 ml of the same buffer and the amount of the radioisotope in the filter paper was determined by a gamma-ray detector.

Assay [5] deals with T1, mouse-derived galanin receptor protein …. The assay is described as follows: competition with porcine [125I] galanin on membranes of CHO cells expressing the mouse galanin receptor. How it is done: (§1) Membrane fractions (1 μg of protein) were incubated with the ligands for 75 min at 25° C. […] Each symbol represents the mean value±S.E.M. of the triplicate assays.
The target is the same in assay [6]. The assay is described as follows: saturation binding and Scatchard plot analysis on membrane fractions of CHO cells transformed with mouse galanin receptor cDNA, 25 C 75 min, filtration.
Excerpt: (§2) The results shown are from one representative experiment performed in triplicate assays.
as §2

Assay [7] shares this target. The assay is described as follows: competition with 100 pM porcine [125I] galanin on membranes of CHO cells expressing the mouse galanin receptor, 25 C 75 min. How it is done: as §1

Where no end group is shown, it is not given here.

“M15 (galanin receptor antagonist) (peptide)” had a Ki in assay [1] of 0.23 nM. Moreover, the IC50 in assay [2] worked out at 0.83 nM.

Turning to “galanin antagonist (galantide) (peptide)”, the IC50 in assay [3] worked out at 0.69 nM. This lies in the sub-nanomolar range.

B1: porcine galanin (unlabeled) (peptide, UniProt P07480 33-61, looked up)
peptide: GWTLNSAGYLLGPHAIDNHRSFHDKYGLA
modifications: ends and bridges not checked
notes: mature; The assay used the 29-residue peptide; also called standard porcine galanin; galanin (porcine)
Consider B1, for which the IC50 in assay [4] is 0.12 nM. Moreover, the Ki in assay [5] is 0.072 nM.

B2: porcine [125I] galanin (peptide, UniProt P07480 33-61, looked up)
peptide: GWTLNSAGYLLGPHAIDNHRSFHDKYGLA
modifications: ends and bridges not checked; also: [125I] radioisotope label (residue not given here)
notes: mature; also called labeled galanin
Regarding B2, in assay [6], the Kd worked out at 0.045 nM. That is a picomolar value.

B3: human galanin (unlabeled) (peptide, UniProt P22466 33-62, looked up)
peptide: GWTLNSAGYLLGPHAVGNHRSFSDKNGLTS
notes: mature; The assay used the galanin peptide
B3 showed a Ki in assay [5] of 0.12 nM. Also, in assay [7], the IC50 was 0.43 nM.

B4: galanin (1-16) partial peptide (peptide)
peptide: GWTLNSAGYLLGPHAI
notes: The range 1-16 counts on the mature peptide, not on the precursor
For B4, the IC50 in assay [4] came to 3.3 nM; in assay [7] it was 3.6 nM. In assay [5], this molecule showed a Ki of 1 nM.

By Ki is commonly meant the equilibrium dissociation constant of an inhibitor or competing ligand from its target. The IC50 is the point on the concentration scale where inhibition reaches its midpoint. Lower therefore signals inhibition by little substance. For orientation: Kd means the concentration at which binding is half-saturated.

These data come from patent US20030008329A1 (Takeda / Millennium, published 2003).
